± gives the uncertainty stated by the source.

The data set can be described thus: amyloid nucleation score (Sup35N fusion, yeast selection) (log enrichment); library NNK2; higher = more nucleation; inactive = no reads after selection. In outline: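 For the nucleation score, DiMSum gave the log enrichment of output over input reads, centred on the mode score of non-aggregating sequences. Psi-negative yeast expressing Sup35N fused to peptides of 20 random codons were induced with 100 μM copper sulfate for 24 hours and grown 7 days at 30°C on medium lacking adenine and uracil. Input and output plasmid inserts were Illumina-sequenced, and sequences with under 100 input reads were excluded.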

As for MDWVQGAFMPRGSGHWHN, the amyloid nucleation score is -0.327 ± 0.79.
For MTKHV the value was 0.241 ± 0.8.
For TFLWLT, the amyloid nucleation score is 2.33 ± 0.09.
To WTPVDVLCMIGMRSVCYINM belongs 1.79 ± 0.1; to KMTRLLFYWSFGCGLIHLVC, -0.464 ± 1.1; to NCLEIQFWRLSSRYVGKFVM, -0.113 ± 0.32.
Regarding RFGRSQVRAKCRVDDDRWIR, the amyloid nucleation score amounted to 4.63 ± 0.071.
In the case of VLVEGVQCYSENRTNT, the amyloid nucleation score stood at 1.49 ± 0.41.
To SVGGR belongs -0.288 ± 0.8.
To LYQMCIRLI belongs -0.657 ± 0.55.
For ETPIIRDQYKLGYNLRTSVL the value was “inactive”; for VKLMY, -1.12 ± 0.62.
For YNSMSVSILNVYYDQPWSLS, the amyloid nucleation score came out at 8.768 ± 0.049.
For CGYVEV the value was 0.244 ± 0.65.
For RRFPRHLASGRMPV the value was 1.41 ± 0.32; for MVNCDYGPLLS, “inactive”.
Regarding IKFVEPYSFLS, the amyloid nucleation score came out at 1.32 ± 0.092.
To IGVVILNHADSSLVTL belongs 3.31 ± 0.091.
For YRIQKHWCQLS the value was -0.087 ± 0.76; for DCSDLVSLLCNVRHAHGRWL, 4.42 ± 0.067; for YLVDTSCRVGWTDVYFPVRV, “inactive”.
Substance SFFNSWTHFGNCWFL showed an amyloid nucleation score of 3.85 ± 0.065.
To HTWDLYYAIYSA belongs -1.19 ± 0.36; to LTSSA, -0.315 ± 0.49; to MKRVGKFVGLGGRHVVHSRV, 0.434 ± 0.33.
For VQLDSSFLIM the value was 1.02 ± 0.48.
To AFFNE belongs 6.023 ± 0.039.
In the case of TWQIFFGIFGFSFY, the amyloid nucleation score was 4.18 ± 0.062.
For YNMIYYQLNTMLVHDMIKYG the value was 3.56 ± 0.073.
For IVCIWNTDVLIGKWTHLSWS the value was 0.883 ± 0.27.
For the substance CGILYSFDGRFVYWSSYGSS, the amyloid nucleation score is -0.353 ± 0.79.
To LDPTVPGVIANVPNRRLARS belongs 5.87 ± 0.061; to RNYHIQYIAVRVLIPASA, 5 ± 0.068.
SFYWKMVW: the amyloid nucleation score turned out to be 0.512 ± 0.33.
To GPMRGC belongs -0.548 ± 1.1; to CKDTTKPGYFGFDIFPNVYE, 2.37 ± 0.15; to MTWARRRSINIYDRHLRMAG, -0.388 ± 1.
Take ASIVNYHFD: the amyloid nucleation score entry is “inactive”.
To NGQYDDTG belongs 2.32 ± 0.14.
For GDTCELCSVCQVNGV the value was 1.15 ± 0.17.
As to GWSYTEVYFMIASCYII, the amyloid nucleation score came to 1.16 ± 0.29.
To TDALANSNRPSKFQVH belongs -0.059 ± 0.37; to RGINVGGWLSLGFTGAVHSL, 3.4 ± 0.12.
To CQGHQWSYRPVP belongs 0.684 ± 0.35; to PSYPSVSRVK, 0.151 ± 0.24; to NFSAFGRFNLNLWMNNITRL, 4.05 ± 0.077.
For STPIAEV the value was 0.6 ± 0.29; for ADATGVECPIYDRRRVNRTN, -0.235 ± 0.8.
Consider LGSNEPL, for which the amyloid nucleation score was -0.337 ± 0.63.
For RCGEVRYPCTDVYILGFRSV the value was -0.437 ± 0.63.
NVLCKRVMMV yielded an amyloid nucleation score of 0.384 ± 0.66.
For CISSKHISVGVTDNLVVV the value was 0.436 ± 0.8; for LSPLIAAHSTERVYWY, 0.262 ± 0.46.
For ACLHFVSYSELAVFDFSFGK the value was 6.89 ± 0.079.
To MTSALGWQIYVYLSGAEYET belongs 0.31 ± 0.5; to SHEGGD, -0.856 ± 0.34; to LRSHLEYGRLCVCTQELMRR, 4.882 ± 0.041.
In turn, MDGNDYAVVR returned an amyloid nucleation score of 0.861 ± 0.23.
As to MSVPFLWFTYHFSRPVLSVT, the amyloid nucleation score is 0.389 ± 0.27.
For WWEVIRLSLRS the value was 2.04 ± 0.13.
For LTSFGDEC the value was -0.153 ± 1.1; for VGVWTALTPCKVVFTSDRLS, 1.23 ± 0.4; for DCLRCNHYTVCNMYDRFFLL, “inactive”.
To EDIWEMRSLHLWLSCSGWTD belongs 2.27 ± 0.15; to SAFDKASERLCSESVYKGKN, 1.7 ± 0.099; to FSKGEATDCSWQ, 0.918 ± 0.34.
VGDCITAWRSWNNCFVGYGP showed an amyloid nucleation score of 3.2 ± 0.053.
For QRDHWNAALCKVLLLSGLLR, the amyloid nucleation score worked out at 0.057 ± 0.33.
To LVTLRKMDPSPRRVIFNVCN belongs 0.935 ± 0.39; to CGFFKVRENGFCGFKKMSFS, -1.12 ± 1.1.
For YWSMSVMVNMKFPCGNCWVR the value was 2.24 ± 0.11; for ILSQPEEGLGGTKSSFCVVF, -0.363 ± 1.1; for IFAAGYMYIFILVYLLTARG, -0.01 ± 1.
For NTLSR the value was 5.654 ± 0.05; for RSSSSTMDMM, 0.85 ± 0.74.
For GKPCH, the amyloid nucleation score came to 0.52 ± 0.33.
For HNAEANNVS the value was -0.492 ± 1.1; for RMCLSVVNWSSRSHRSFHQP, 3.81 ± 0.051; for LRWDGEDWRWDALWVTSSVC, 0.512 ± 0.2.
To YDDKGEIRLPDQSMNCFVSD belongs -0.766 ± 1; to AVLLNA, 0.181 ± 0.34; to FTNFNDYLFWNYMNWTGYML, “inactive”.
For YMTSD the value was -0.464 ± 0.41; for TGLGLIGLHSLVKVSRV, -0.255 ± 0.65.
Take TGCMSMLFKCAGMCQWWSGG: the amyloid nucleation score came out at 6.71 ± 0.086.
For VSSPCGRFSFNNNGGKVWTW the value was -0.111 ± 0.61; for MNCVLQKLVVVCFQSMAYMR, 0.498 ± 0.27.
To HAVDTHFADRGSLALKYSKC belongs 1.19 ± 0.59; to SGYFFPRL, -0.73 ± 1.1; to SSLDNIWSTSD, 0.337 ± 0.57.
For YVLSYSCLDLYSIHL the value was 5.64 ± 0.073; for GIVFVLLLMNVFEVCRSELM, “inactive”.
In the case of GILWRGVLVRYVCPVVSTSI, the amyloid nucleation score entry is “inactive”.
As for YFCSVSRFRVLDSDYYRKGW, the amyloid nucleation score was -0.817 ± 1.1.
For RSIISFPLFLFSIQLIPPWA the value was -0.792 ± 0.6; for DLTCSC, 0.804 ± 0.3; for SETLFEYS, -1.55 ± 0.55.
For the substance FLPNFSNVLFSLHPASKSGE, the amyloid nucleation score was -0.218 ± 0.48.
STLVWSEIIF returned an amyloid nucleation score of 0.592 ± 0.47.
Consider CWDRFTYEYLSFYSLISRV, for which the amyloid nucleation score entry is “inactive”.
To FNYDIPPVVQGCHISAQLLP belongs -0.271 ± 0.74; to TRYTRGSALCTLDGKIYMMK, 1.29 ± 0.4; to NYLYHLPYLRTSVLRRLRPV, 0.426 ± 0.3.
For FSNISSSMKNKSVRGCECGR the value was -1.04 ± 0.33.
For LFFIIDNSQLSSSVDGLIVE the value was -0.583 ± 1; for TCFVC, 5.746 ± 0.052.

The record behind these values is the supplement of paper PMC12042874.
